Patent US20120316071A1 (published 2012)
Residue numbers refer to the chain shown, from its start. Names may count otherwise. Values belong to the binder of their own block, whether it stands above or below them.

Key:
[1] = molecular target: T1, rHuman ErbB2/Fc Chimera, CF (R&D Systems Cat#1129-ER) (human, UniProt P04626 23-652); experiment: ECL Multispot (MSD), antigen spotted; Fab 0.50 (µM); blank 142
T1 construct: Bought recombinant protein; Fc part of the bought chimera not given

[2] = molecular target: T2, rHuman Erythropoietin R/Fc Chimera, CF (R&D Systems Cat#963-ER) (human, UniProt P19235 25-250); experiment: as above
T2 construct: Bought recombinant protein; also called EPO R; EPO R/Fc; Fc part of the bought chimera not given
T2 sequence (looked up): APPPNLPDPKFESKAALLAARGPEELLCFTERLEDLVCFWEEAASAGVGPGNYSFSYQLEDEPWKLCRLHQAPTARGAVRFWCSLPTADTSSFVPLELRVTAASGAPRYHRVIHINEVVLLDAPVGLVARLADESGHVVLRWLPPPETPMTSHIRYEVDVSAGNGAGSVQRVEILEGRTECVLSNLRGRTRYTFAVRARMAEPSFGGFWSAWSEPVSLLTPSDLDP

[3] = molecular target: T3, Recombinant Human DLL4 (R&D Systems Cat#1506-D4/CF) (human, UniProt Q9NR61 27-529); experiment: as above
T3 construct: Bought recombinant protein; also called delta-like protein 4; rHuman DLL4

[4] = molecular target: T4, rHuman HGF R/c-MET/Fc Chimera, CF (R&D Systems Cat#358-MT/CF) (human, UniProt P08581 25-932); experiment: as above
T4 construct: Bought recombinant protein; also called HGF R/Fc; Fc part of the bought chimera not given

[5] = molecular target: T5, rHuman P-Cadherin/Fc Chimera, CF (R&D Systems Cat#861-PC) (human, UniProt P22223 108-654); experiment: as above
T5 construct: Bought recombinant protein; Fc part of the bought chimera not given

[6] = molecular target: T6, rHuman IGF-1 sR, CF (R&D Systems Cat#391-GR) (human, UniProt P08069 31-932); experiment: as above
T6 construct: Bought recombinant soluble receptor; also called insulin-like growth factor-1 soluble receptor

[7] = molecular target: T7, rHuman CD44/Fc Chimera, CF (R&D Systems Cat#3660-CD) (human, UniProt P16070 21-220); experiment: as above
T7 construct: Bought recombinant protein; Fc part of the bought chimera not given

[8] = molecular target: T8, rHuman P-Cadherin/Fc Chimera, CF (R&D Systems Cat#861-PC) (human, UniProt P22223 108-654); experiment: Multispot ECL (MSD) titration; antigen spotted on plate; Fab 930 nM; blank spot 1206
T8 construct: Bought Fc chimera; Fc part of the bought chimera not given

[9] = molecular target: T9, rHuman CD44/Fc Chimera, CF (R&D Systems Cat#3660-CD) (human, UniProt P16070 21-220); experiment: as above
T9 construct: Bought Fc chimera; Fc part of the bought chimera not given

[10] = molecular target: T10, rHuman Erythropoietin R/Fc Chimera, CF (R&D Systems Cat#963-ER) (human, UniProt P19235 25-250); experiment: as above
T10 construct: Bought Fc chimera; also called EPO R/Fc; EPO R; Fc part of the bought chimera not given
T10 sequence (looked up): T2 sequence (looked up)

[11] = molecular target: T11, rHuman IGF-1 sR (IGF-1 sR), CF (R&D Systems Cat#391-GR) (human, UniProt P08069 31-932); experiment: as above
T11 construct: Bought soluble receptor; also called insulin-like growth factor-1 soluble receptor

[12] = molecular target: T12, rHuman Notch-1/Fc Chimera, CF (R&D Systems Cat#3647-TK) (human, UniProt P46531 19-526); experiment: as above
T12 construct: Bought Fc chimera; Fc part of the bought chimera not given

[13] = molecular target: T13, Recombinant Human DLL4 (R&D Systems Cat#1506-D4/CF) (human, UniProt Q9NR61 27-524); experiment: as above
T13 construct: Bought recombinant protein; also called delta-like protein 4; rHuman DLL4

[14] = molecular target: T14, rHuman ErbB2/Fc Chimera, CF (R&D Systems Cat#1129-ER) (human, UniProt P04626 23-652); experiment: as above
T14 construct: Bought Fc chimera; also called human epidermal growth factor 2 receptor; Fc part of the bought chimera not given

[15] = molecular target: T15, Recombinant Human DLL4 (R&D Systems Cat#1506-D4/CF) (human, UniProt Q9NR61 27-524); experiment: ECL multispot (MSD) assay, spotted antigen; Fab 2.00 (head prints uM)
T15 construct: Bought recombinant protein; also called delta-like protein 4

[16] = molecular target: T16, rHuman HGF R/c-MET/Fc Chimera, CF (R&D Systems Cat#358-MT/CF) (human, UniProt P08581 25-932); experiment: as above
T16 construct: Bought recombinant protein; also called HGF R/Fc; Fc part of the bought chimera not given

[17] = molecular target: T17, rHuman EGF R/Fc Chimera, CF (R&D Systems Cat#344-ER) (human, UniProt P00533 25-645); experiment: as above
T17 construct: Bought recombinant protein; Fc part of the bought chimera not given

[18] = molecular target: T18, rHuman Erythropoietin R/Fc Chimera, CF (R&D Systems Cat#963-ER) (human, UniProt P19235 25-250); experiment: as above
T18 construct: Bought recombinant protein; also called EPO R; EPO R/Fc; Fc part of the bought chimera not given
T18 sequence (looked up): T2 sequence (looked up)

[19] = molecular target: T19, rHuman P-Cadherin/Fc Chimera, CF (R&D Systems Cat#861-PC) (human, UniProt P22223 108-654); experiment: as above
T19 construct: Bought recombinant protein; Fc part of the bought chimera not given

ECL signal [1]: 199
ECL signal [2]: 235
ECL signal [3]: 6670
ECL signal [4]: 182
ECL signal [5]: 161
ECL signal [6]: 190
ECL signal [7]: 207
B1: Fab VH1-46_IGHD6-6*01_IGHJ1*01 S102A/S103P/S104F (APF) & L6_IGKJ1*01 (Fab, V domains shown)
VH: QVQLVQSGAEVKKPGASVKVSCKASGYTFTSYYMHWVRQAPGQGLEWMGIINPSGGSTSYAQKFQGRVTMTRDTSTSTVYMELSSLRSEDTAVYYCAREEYAPFSAEYFQHWGQGTLVTVSS
VL: not shown
notes: Tested as a Fab made in E. coli: VH cloned in Plasmid A (CH1 constant region, His6 and Flag tags), VL in Plasmid C (kappa constant region); also called H:APF & L:wt; APF triple mutant

ECL signal [8]: 2440
ECL signal [9]: 1920
ECL signal [10]: 3010
ECL signal [11]: 1920
ECL signal [12]: 2210
ECL signal [13]: 8160
ECL signal [14]: 2220
B2: Fab VH1-46_IGHD6-13*01_IGHJ4*01 & O1_IGKJ1*01 (Fab, V domains shown)
VH: B1 VH with E100G, A102S, P103S, F104S, S105W, A106Y, E107D, Q110D, H111Y
VL: DIVMTQTPLSLPVTPGEPASISCRSSQSLLDSDDGNTYLDWYLQKPGQSPQLLIYTLSYRASGVPDRFSGSGSGTDFTLKISRVEAEDVGVYYCMQRIEFPSWTFGQGTKVEIKR
notes: Germline library Fab expressed in E. coli; VH was cloned into Plasmid A (CH1 constant region, His6 and Flag tags); The kappa VL was cloned into Plasmid C (kappa CL)

ECL signal/noise ratio [15]: 72.7
ECL signal/noise ratio [16]: 6
ECL signal/noise ratio [17]: 3.8
ECL signal/noise ratio [18]: 4.1
ECL signal/noise ratio [19]: 4.3
B3: Fab VH5-51_IGHD5-18*01>3_IGHJ4*01 G100K/G104T & V3-4_IGLJ1*01 (Fab, V domains shown)
VH: EVQLVQSGAEVKKPGESLKISCKGSGYSFTSYWIGWVRQMPGKGLEWMGIIYPGDSDTRYSPSFQGQVTISADKSISTAYLQWSSLKASDTAMYYCARRKYSYTYDYFDYWGQGTLVTVSS
VL: QTVVTQEPSFSVSPGGTVTLTCGLSSGSVSTSYYPSWYQQTPGQAPRTLIYSTNTRSSGVPDRFSGSILGNKAALTITGAQADDESDYYCVLYMGSGISYVFGTGTKVTVL
notes: Tested as a Fab; The constant parts are the same as for the parent Fab (CH1 with His6/Flag tags, lambda CL); also called KT double mutant; H:KT
